B1: C0120903 human Alya IgG1 (antibody, V domains shown)
VH: EVQLVQSGAEVKKPGSSMKVSCKASGGTFNSYTINWVRQAPGQGLEWVGGFIPIFGTADYAQKFHGRVAITADESMSTAYMELSSLRSEDTAVYYCARAPLGSEPFDYWGQGTMVTVSS
VL: SYVLTQPPSVSVAPGQTARITCGGNNIGSKSVHWYQQKPGQAPVLVVYDDSDRPSGIPERFSGSNSGNTATLTISRVEAGDEADYYCQVWDSSSDHLVFGGGTKLTVL
notes: Fully human, phage display derived; human IgG1 Alya constant (239iCys, S442C, EU); unconjugated
B2: C0120918 human Alya IgG1 (antibody, V domains shown)
VH: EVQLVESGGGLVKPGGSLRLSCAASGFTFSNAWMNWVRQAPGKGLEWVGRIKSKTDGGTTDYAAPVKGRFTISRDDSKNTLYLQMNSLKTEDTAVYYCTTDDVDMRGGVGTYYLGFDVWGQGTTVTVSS
VL: SYELTQPPSVSVSPGQTARITCSGDALPKQYAYWYQQKPGQAPVLVIYKDSERPSGIPERFSGSSSGTTVTLTISGVQAEDEADYYCQSADSSGTWVFGGGTKVTVL
notes: as for B1
B3: C0120906 human Alya IgG1 (antibody, V domains shown)
VH: EVQLVQSGPEVKKPGASVKISCKASGYKLNDPGVHGVSWVRQAPGQGLEWMGWISTLNGDTRYAQKFQGRVTMATDSSTSTIYMDLRSLKSDDTALYYCARDDYTAIFDFWGRGTLVTVSS
VL: QSVLTQPPSVSVAPGQTASITCGGSNIGSQSVHWYQQKPGQAPVLVVYDDSDRPSGIPERFSGSKSGNTASLILSRVEAGDEADYYCQVWDSSTDHHVFGTGTKVTVL
notes: as for B1
B4: C0120905 human Alya IgG1 (antibody, V domains shown)
VH: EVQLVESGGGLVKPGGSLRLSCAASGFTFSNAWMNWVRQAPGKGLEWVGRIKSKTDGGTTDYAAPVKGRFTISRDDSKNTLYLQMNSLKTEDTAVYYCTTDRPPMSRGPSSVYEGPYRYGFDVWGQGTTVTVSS
VL: NFMLTQPHSVSESPGKTVTISCTGSGGNIVDNFVQWHQQRPGSAPRTVIYEDDQRPSGVPDRFSASVDSSSNSGTLSISGLKTEDEADYYCQSYDGANRWVFGGGTKLTVL
notes: as for B1
B5: C0120917 human Alya IgG1 (antibody, V domains shown)
VH: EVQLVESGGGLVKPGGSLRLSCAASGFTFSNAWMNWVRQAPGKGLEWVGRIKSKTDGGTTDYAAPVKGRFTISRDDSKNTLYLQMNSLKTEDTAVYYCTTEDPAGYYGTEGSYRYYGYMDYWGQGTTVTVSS
VL: NFMLTQPHSVSESPGKTVTISCTASGDTLDNKYVNWYQVRPGSAPATLIFHYEERDSGVPDRFSGSFDASSNSASLTISGLQTADEADYFCQSYDSKRDNLVVFGGGTKVTVL
notes: as for B1
B6: mouse 5E3 expressed as human IgG1 Alya (antibody, V domains shown)
VH: QVQLQQPGAELVMPGASVKMSCKASGYTFTDYWMHWVKQRPGQGLEWIGAIDTSDSYTSYNQKFKGKATLTVDESSSTAYMQLSSLTSEDSAVYYCARDYGNFYYYAMDYWGQGTSVTVSS
VL: QAVVTQESALTTSPGETVTLTCRSSTGAVTTSNYANWVQEKPDHLFTGLIGGTNNRAPGVPARFSGSLIGDKAALTITGAQTEDEAIYFCALWYSNHWVFGGGTKLTVL
notes: Mouse variable domains on human IgG1 Alya constant (pEU1.22; 239iCys and S442C, EU numbering); purified, unconjugated; also called 5E3 IgG1 Alya
B7: C0120914 human Alya IgG1 (antibody, V domains shown)
VH: QVQLQESGPGLVKPSETLSLTCTVSGGSVSSGRYDWSWIRQPPGKGLEWIGHIYYTGITDYNPSLRSRVTISADKPKNQFSLKLNSVTAADTAVYYCARGPFFDPWGQGTMVTVSS
VL: QSVLTQPPSVSVAPGQTASLTCGANNIGSKSVQWYQQKPGQAPVLVVYDGSDRPSGIPDRFSGSSSENTATLTISRVEAGDEADYYCQLWDSVTDRPVFGGGTKVTVL
notes: as for B1
B8: 5Hg4-5Lg5 human Alya IgG1 (antibody, V domains shown)
VH: QVQLVQSGSELKKPGASVKVSCKASGYTFTDYWMHWVRQAPGQGLEWMGAIDTSDSYTSYNQKFKGRFVFSLDTSVSTAYLQICSLKAEDTAVYYCARDYGNFYYYAMDYWGQGTLVTVSS
VL: QSVVTQPPSVSGAPGQRVTISCRSSTGAVTTSNYANWYQQLPGTAPKLLIYGTNNRAPGVPDRFSGSKSGASASLAITGLQAEDEADYYCALWYSNHWVFGGGTKLTVL
notes: Humanised 5E3; human IgG1 Alya constant (239iCys, S442C, EU), lambda light chain; purified, unconjugated
B9: 5Hg4-5Lg4 human Alya IgG1 (antibody, V domains shown)
VH: QVQLVQSGSELKKPGASVKVSCKASGYTFTDYWMHWVRQAPGQGLEWMGAIDTSDSYTSYNQKFKGRFVFSLDTSVSTAYLQICSLKAEDTAVYYCARDYGNFYYYAMDYWGQGTLVTVSS
VL: QSALTQPPSVSGSPGQSVTISCRSSTGAVTTSNYANWYQQPPGTAPKLMIYGTNNRAPGVPDRFSGSKSGNTASLTISGLQAEDEADYYCALWYSNHWVFGGGTKLTVL
notes: as for B8
B10: 5Hg2-5Lg1 human Alya IgG1 (antibody, V domains shown)
VH: QVQLVQSGAEVKKPGASVKVSCKASGYTFTDYWMHWVRQAPGQRLEWMGAIDTSDSYTSYNQKFKGRVTITRDTSASTAYMELSSLRSEDTAVYYCARDYGNFYYYAMDYWGQGTLVTVSS
VL: QAVVTQEPSLTVSPGGTVTLTCRSSTGAVTTSNYANWFQQKPGQAPRTLIYGTNNRAPWTPARFSGSLLGGKAALTLSGAQPEDEAEYYCALWYSNHWVFGGGTKLTVL
notes: as for B8
B11: 5Hg4-5Lg1 human Alya IgG1 (antibody, V domains shown)
VH: QVQLVQSGSELKKPGASVKVSCKASGYTFTDYWMHWVRQAPGQGLEWMGAIDTSDSYTSYNQKFKGRFVFSLDTSVSTAYLQICSLKAEDTAVYYCARDYGNFYYYAMDYWGQGTLVTVSS
VL: QAVVTQEPSLTVSPGGTVTLTCRSSTGAVTTSNYANWFQQKPGQAPRTLIYGTNNRAPWTPARFSGSLLGGKAALTLSGAQPEDEAEYYCALWYSNHWVFGGGTKLTVL
notes: as for B8
B12: 5Hg2-5Lg3 human Alya IgG1 (antibody, V domains shown)
VH: QVQLVQSGAEVKKPGASVKVSCKASGYTFTDYWMHWVRQAPGQRLEWMGAIDTSDSYTSYNQKFKGRVTITRDTSASTAYMELSSLRSEDTAVYYCARDYGNFYYYAMDYWGQGTLVTVSS
VL: QTVVTQEPSFSVSPGGTVTLTCRSSTGAVTTSNYANWYQQTPGQAPRTLIYGTNNRAPGVPDRFSGSILGNKAALTITGAQADDESDYYCALWYSNHWVFGGGTKLTVL
notes: as for B8
B13: 5Hg2-5Lg2 human Alya IgG1 (antibody, V domains shown)
VH: QVQLVQSGAEVKKPGASVKVSCKASGYTFTDYWMHWVRQAPGQRLEWMGAIDTSDSYTSYNQKFKGRVTITRDTSASTAYMELSSLRSEDTAVYYCARDYGNFYYYAMDYWGQGTLVTVSS
VL: QAVVTQEPSLTVSPGGTVTLTCRSSTGAVTTSNYANWFQQKPGQAPRTLIYGTNNRAPWTPARFSGSLLGGKAALTLLGAQPEDEAEYYCALWYSNHWVFGGGTKLTVL
notes: as for B8
B14: 5Hg1-5Lg1 human Alya IgG1 (antibody, V domains shown)
VH: QVQLVQSGAEVKKPGASVKVSCKASGYTFTDYWMHWVRQAPGQGLEWMGAIDTSDSYTSYNQKFKGRVTMTRDTSTSTVYMELSSLRSEDTAVYYCARDYGNFYYYAMDYWGQGTLVTVSS
VL: QAVVTQEPSLTVSPGGTVTLTCRSSTGAVTTSNYANWFQQKPGQAPRTLIYGTNNRAPWTPARFSGSLLGGKAALTLSGAQPEDEAEYYCALWYSNHWVFGGGTKLTVL
notes: as for B8
B15: 5Hg1-5Lg2 human Alya IgG1 (antibody, V domains shown)
VH: QVQLVQSGAEVKKPGASVKVSCKASGYTFTDYWMHWVRQAPGQGLEWMGAIDTSDSYTSYNQKFKGRVTMTRDTSTSTVYMELSSLRSEDTAVYYCARDYGNFYYYAMDYWGQGTLVTVSS
VL: QAVVTQEPSLTVSPGGTVTLTCRSSTGAVTTSNYANWFQQKPGQAPRTLIYGTNNRAPWTPARFSGSLLGGKAALTLLGAQPEDEAEYYCALWYSNHWVFGGGTKLTVL
notes: as for B8

The first test deals with T1, human SEMA4B expressed on expi293 cells (human, UniProt Q9NPR2 44-837).
T1 construct: whole, on cells
T1 sequence (looked up): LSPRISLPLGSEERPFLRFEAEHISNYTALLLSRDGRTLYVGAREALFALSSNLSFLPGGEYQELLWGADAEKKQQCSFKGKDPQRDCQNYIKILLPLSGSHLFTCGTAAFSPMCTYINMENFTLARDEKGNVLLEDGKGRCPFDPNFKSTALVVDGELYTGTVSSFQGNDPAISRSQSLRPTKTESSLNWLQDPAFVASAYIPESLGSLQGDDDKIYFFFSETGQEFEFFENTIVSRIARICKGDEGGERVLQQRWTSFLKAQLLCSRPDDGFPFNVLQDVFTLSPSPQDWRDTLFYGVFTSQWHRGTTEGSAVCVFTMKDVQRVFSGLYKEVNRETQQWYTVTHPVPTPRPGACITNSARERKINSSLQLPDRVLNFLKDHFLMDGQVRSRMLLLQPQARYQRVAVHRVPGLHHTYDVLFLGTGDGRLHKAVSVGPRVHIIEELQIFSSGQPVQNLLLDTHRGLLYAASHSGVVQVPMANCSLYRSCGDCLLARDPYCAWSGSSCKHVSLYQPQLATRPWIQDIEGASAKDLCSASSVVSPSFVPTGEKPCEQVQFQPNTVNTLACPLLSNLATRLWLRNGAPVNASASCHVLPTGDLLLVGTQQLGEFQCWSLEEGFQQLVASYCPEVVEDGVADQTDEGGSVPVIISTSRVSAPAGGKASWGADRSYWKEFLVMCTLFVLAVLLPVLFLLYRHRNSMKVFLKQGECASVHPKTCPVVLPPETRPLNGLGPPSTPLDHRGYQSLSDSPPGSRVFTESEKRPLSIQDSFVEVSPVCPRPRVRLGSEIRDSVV
Nature of the test: Mirrorball direct binding, dilution series on expi293 cells transiently transfected with human SEMA4B, anti-human Alexa Fluor 647.
In the case of B1, the binding result is “no binding (tested: log (M) -8 (1e-8 M))”.

Regarding B2, the binding result is on record as “no binding (tested: log (M) -8 (1e-8 M))”.

Regarding B3, the binding result is “no binding (tested: log (M) -8 (1e-8 M))”.

With B4, the binding result is reported as “no binding (tested: log (M) -8 (1e-8 M))”.

For B5, the binding result is given as “no binding (tested: log (M) -8 (1e-8 M))”.

Take B6: the binding result is “no binding (tested: log (M) -8 (1e-8 M))”.

On to B7, for which the binding result is “no binding (tested: log (M) -8 (1e-8 M))”.

A further test concerns the target T2, cynomolgus SEMA4A expressed on expi293 cells (UniProt ID G7NV79) (cynomolgus, UniProt Q9H3S1 33-761 (human entry)).
T2 construct: Transient transfection in expi293 cells; also called cyno SEMA4A
T2 chain: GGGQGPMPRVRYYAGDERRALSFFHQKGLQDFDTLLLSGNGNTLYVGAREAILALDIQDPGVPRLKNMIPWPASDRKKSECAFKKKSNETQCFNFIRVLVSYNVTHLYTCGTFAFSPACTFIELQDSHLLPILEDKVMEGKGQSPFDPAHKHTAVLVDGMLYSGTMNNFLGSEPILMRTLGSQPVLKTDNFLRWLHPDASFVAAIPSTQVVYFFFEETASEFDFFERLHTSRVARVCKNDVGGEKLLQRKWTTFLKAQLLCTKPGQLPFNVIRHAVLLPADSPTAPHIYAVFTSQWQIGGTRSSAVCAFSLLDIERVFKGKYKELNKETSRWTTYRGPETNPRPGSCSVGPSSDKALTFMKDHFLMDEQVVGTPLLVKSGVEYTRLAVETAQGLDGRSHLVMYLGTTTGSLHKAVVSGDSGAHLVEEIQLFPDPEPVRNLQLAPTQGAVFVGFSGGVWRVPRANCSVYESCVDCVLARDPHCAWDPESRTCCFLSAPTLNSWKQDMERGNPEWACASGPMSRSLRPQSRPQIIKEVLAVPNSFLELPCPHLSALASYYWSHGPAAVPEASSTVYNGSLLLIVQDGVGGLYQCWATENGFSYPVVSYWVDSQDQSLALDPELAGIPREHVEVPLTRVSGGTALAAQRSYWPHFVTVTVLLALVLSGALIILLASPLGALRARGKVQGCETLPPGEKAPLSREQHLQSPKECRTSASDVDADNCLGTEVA
Nature of the test: Mirrorball direct binding, dilution series on expi293 cells transiently transfected with cyno SEMA4A, anti-human Alexa Fluor 647. The text has this:
Hits from the primary screening were re-formatted into the human Alya IgG1 vector and re-expressed and purified as described in section 4.1. In addition, a single clone was identified that contained an Asparagine deamidation motif (Asn Gly) within its VHCDR2. This potential sequence liability was de-risked by synthesising de novo two clonal variant VH genes (Asn Ala and Gln Gly) and cloning these sequences into the human Alya IgG1 expression vector. To determine the specificity profile of each purified human Alya IgG1, a dilution series was tested for binding to human SEMA4A, mouse SEMA4A, cyno SEMA4A, human SEMA4B and mock transfected cells (transient transfections set up in expi 293 cells.) The five assays employed methods described in section 2.3, using the appropriate cells and substituting the un-purified scFv periplasmic preparation with the recombinant human Alya IgG1 dilution series. Data was analysed as Count x median mean intensity (x FLU).
Take B8: the binding result is “binds”.

On to B9, for which the binding result is listed as “binds”.

For the molecule B10, the binding result is on record as “binds”.

On to B11, for which the binding result is reported as “binds”.

With B12, the binding result is “binds”.

Consider B13, for which the binding result was “binds”.

For the molecule B14, the binding result is listed as “binds”.

B15: the binding result was “binds”.

The values above are taken from patent US20250152729A1 (CANCER RESEARCH TECHNOLOGY, published 2025).
